Four molecules from publication PMC3269379, “The Host-Pathogen interaction of human cyclophilin A and HIV-1 Vpr requires specific N-terminal and novel C-terminal domains” (BMC Structural Biology, 2011) can be followed below.

What all share (details): both partners purified
Assay [1] addresses T1, human cyclophilin A (human, UniProt P62937 1-165).
T1 construct: also called CypA; peptidyl prolyl isomerase cyclophilin A; source: recombinant, highly pure; production and purification described previously [14]
The assay can be described thus: SPR. A general note: SPR reads the build-up and loss of mass on a sensor chip optically.

Assay [2] has as its target T1, human cyclophilin A. The assay can be described thus: ITC. On the technique in general: In ITC the heat of successive injections is recorded.
Assay [3] has as its target T1, human cyclophilin A. As to the kind of experiment: SPR. This is another data set of the same source.

Where “and” joins values, the source holds several entries; their conditions need not be identical. Equal values may be shown once.

T1 sequence (P62937 whole entry): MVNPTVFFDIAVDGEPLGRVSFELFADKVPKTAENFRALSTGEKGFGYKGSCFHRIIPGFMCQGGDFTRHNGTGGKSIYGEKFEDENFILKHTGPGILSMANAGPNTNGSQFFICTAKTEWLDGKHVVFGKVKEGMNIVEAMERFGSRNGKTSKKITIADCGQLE

B1: full-length synthetic HIV-1 Vpr (Vpr^1-96) (natural protein)
chain: MEQAPEDQGPQREPYNEWTLELLEELKSEAVRHFPRIWLHNLGQHIYETYGDTWAGVEAIIRILQQLLFIHFRIGCRHSRIGVTRQRRARNGASRS
For B1, in the assay with human cyclophilin A [1], the Kd is 310 nM and 320 nM; the koff was 0.007 s⁻¹ and 0.00422 s⁻¹; the kon was 32000 M⁻¹ s⁻¹ and 16000 M⁻¹ s⁻¹.

B2: Vpr^75-90 (peptide)
peptide: GCRHSRIGVTRQRRAR
notes: HIV-1 Vpr residues 75-90; source: synthetic peptide
In the assay with human cyclophilin A [1], B2 registered a Kd of 280 nM, a koff of 0.0063 s⁻¹ and a kon of 81000 M⁻¹ s⁻¹. For the same molecule, in the assay with human cyclophilin A [2], the Ka was 9e+06 M⁻¹ and 1.7e+07 M⁻¹; the Kd was 120 nM and 60 nM; the dH is -17.4 kcal/mol and -16.5 kcal/mol; the “stoichiometry N” value is 0.98 and 1.
As for GCRHSAIGVTRQRRAR (source: synthetic peptide) [Vpr^75-90 (R80A)], in the assay with human cyclophilin A [1], binding was put at a Kd of 7500 nM, the koff was found to be 0.027 s⁻¹ and the kon came out at 3800 M⁻¹ s⁻¹.
Consider AVRHFPRIWLH [Vpr^30-40], for which the binding result with human cyclophilin A [3] is “binds”.

Broadly, the Kd is the constant that tells how readily two partners part at equilibrium. Lower therefore signals tighter binding. For orientation: koff means a measure of how fast the partners let go of each other. High values mean a short-lived complex, low ones a long-lived complex. In general, kon refers to the rate constant with which the complex forms. The stoichiometry N is a count of units in the complex or per binding partner.
